The text below walks through data of publication PMC3684052 (Molecular cell, 2013).

Holding throughout (assay): pull-down
Experiment [1] has as its target T1, His-ICAP1 (49–200), wild type (human, UniProt O14713 49-200).
T1 sequence (looked up): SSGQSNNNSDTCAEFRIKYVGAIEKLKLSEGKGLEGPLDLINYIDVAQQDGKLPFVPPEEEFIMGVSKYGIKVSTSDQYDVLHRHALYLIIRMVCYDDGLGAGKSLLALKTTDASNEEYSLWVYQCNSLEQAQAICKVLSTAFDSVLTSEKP

Experiment [2] concerns the target T2, His-ICAP1 (49–200) D93A/Q96A (human, UniProt O14713 49-200, D93A | Q96A).
T2 sequence (looked up): T1 sequence (looked up) with D45A, Q48A

Experiment [3] deals with T3, His-ICAP1 (49–200) L135A/I138A/I139A (human, UniProt O14713 49-200, L135A | I138A | I139A).
T3 sequence (looked up): T1 sequence (looked up) with L87A, I90A, I91A

The next experiment concerns the target T4, His-ICAP1 (49–200) C184D (human, UniProt O14713 49-200, C184D).
T4 sequence (looked up): T1 sequence (looked up) with C136D

The target in another experiment is T5, His-ICAP1 (49–200) I89R (human, UniProt O14713 49-200, I89R).
T5 sequence (looked up): T1 sequence (looked up) with I41R

Positions count from the first letter of the chain named. Names may count otherwise. No end group written: not given here.

B1: GST-KRIT1 (residues 170–198) A176D/P182D (domain or fragment, human, UniProt O00522 170-198, looked up)
chain: QSHFIPDLFRPSDLERIKTNVINPAYATE
Regarding B1, the binding result in experiment [1] was “binds”.

B2: GST-KRIT1 (residues 170–198) N192A/Y195A (domain or fragment, human, UniProt O00522 170-198, looked up)
chain: QSHFIPALFRPSPLERIKTNVIAPAAATE
In the case of B2, the binding result in experiment [1] is “binds”.

B3: GST-KRIT1 (residues 170–198), wild type (domain or fragment, human, UniProt O00522 170-198, looked up)
chain: QSHFIPALFRPSPLERIKTNVINPAYATE
On to B3, for which the binding result (in experiment [2]; in experiment [3]; with His-ICAP1 (49–200) C184D; with His-ICAP1 (49–200) I89R; in experiment [1]) was “binds” each time.

B4: GST-integrin β1 fusion protein (residues 752 to 798), wild type (domain or fragment, UniProt P05556 752-798, looked up)
chain: KLLMIIHDRREFAKFEKEKMNAKWDTGENPIYKSAVTTVVNPKYEGK
modifications: also: GST fusion
B4: the binding result (in experiment [2]; with His-ICAP1 (49–200) I89R; in experiment [1]) was “binds” each time.

B5: GST-KRIT1 (residues 170–198) R179A/R185A (domain or fragment, human, UniProt O00522 170-198, looked up)
chain: QSHFIPALFAPSPLEAIKTNVINPAYATE
As for B5, in experiment [1], the binding result is on record as “binds”.
